According to PMC9038204 (PLoS Biology, 2022):

B1: human SNX1 peptide, residues 35-51 (first aDLF motif) (peptide)
peptide: EAGDSDTEGEDIFTGAA
notes: sorting nexin-1 (SNX1), human, residues 35 to 51; also called hSNX1 35-51; SNX1_(35-51); source: synthetic peptide (Genscript)
B2: human SNX1 peptide, residues 75-92 (second aDLF motif) (peptide)
peptide: NGIHEEQDQEPQDLFADA
notes: sorting nexin-1 (SNX1), human, residues 75 to 92; also called hSNX1 75-92; SNX1_(75-92); source: synthetic peptide (Genscript)
B3: human SNX2 peptide, residues 62-82 (second aDLF motif) (peptide)
peptide: TEVVLDDDREDLFAEATEEVS
notes: sorting nexin-2 (SNX2), human, residues 62 to 82; also called hSNX2 62-82; SNX2_(62-82); source: synthetic peptide (Genscript)
B4: isolated FERM domain of human SNX27 (domain or fragment, UniProt Q96L92 269-531, looked up)
chain: YNGVSDVELRVALPDGTTVTVRVKKNSTTDQVYQAIAAKVGMDSTTVNYFALFEVISHSFVRKLAPNEFPHKLYIQNYTSAVPGTCLTIRKWLFTTEEEILLNDNDLAVTYFFHQAVDDVKKGYIKAEEKSYQLQKLYEQRKMVMYLNMLRTCEGYNEIIFPHCACDSRRKGHVITAISITHFKLHACTEEGQLENQVIAFEWDEMQRWDTDEEGMAFCFEYARGEKKPRWVKIFTPYFNYMHECFERVFCELKWRKENIFQM
notes: FERM domain of human SNX27; pET-28a, TEV site between His-tag and SNX27; also called hSNX27_(FERM); source: E. coli BL21 (DE3), purified (TALON or Ni-NTA, SEC, Mono Q)
B5: GST-mSNX1(1-139) (domain or fragment, mouse, UniProt Q9WV80 1-139, looked up)
chain: MASGGGGCSASERLPPPFPGMDPESEGAAGASEPEAGDSDTEGEDIFTGAAAATKPQSPKKTTSLFPIKNGSKENGIHEDQDQEPQDLFADATVELSLDSTQNNQKTMPGKTLTSHSPQEATNSPKPQPSYEELEEEEQ
notes: mouse SNX1 residues 1 to 139; vector pGEX4T-2, thrombin-cleavable GST; eluted with glutathione and named GST-mSNX1(1-139) in the ITC; also called amino-terminal extension of mouse SNX1; source: E. coli BL21 CodonPlus (DE3), purified (glutathione Sepharose, SEC); not shown: GST, N-terminal, kept
B6: SNX1_(35-51) peptide (peptide)
peptide: EAGDSDTEGEDIFTGAA
notes: human SNX1 residues 35 to 51; also called first aDLF motif of human SNX1; source: synthetic peptide (Genscript)
B7: SNX1_(75-92) peptide (peptide)
peptide: NGIHEEQDQEPQDLFADA
notes: human SNX1 residues 75 to 92; also called second aDLF motif of human SNX1; source: synthetic peptide (Genscript)
B8: SNX2_(16-33) peptide (peptide)
peptide: TDFEDLEDGEDLFTSTVS
notes: human SNX2 residues 16 to 33; also called first aDLF motif of SNX2; source: synthetic peptide (Genscript)
B9: SNX2_(62-82) peptide (peptide)
peptide: TEVVLDDDREDLFAEATEEVS
notes: human SNX2 residues 62 to 82; also called second aDLF motif of SNX2; source: synthetic peptide (Genscript)

Assays:
Conditions in all cases: both partners purified
[1] = target: T1, full-length mouse SNX27 (mouse, UniProt Q3UHD6 1-539); test: ITC; 800 μM hSNX1 or hSNX2 peptide (syringe) titrated into 20 μM mSNX27FL (cell); 25°C; 50 mM HEPES pH 7.5, 200 mM NaCl, 5% glycerol, 1 mM β-ME with 1:10 peptide buffer (100 mM Tris-HCl pH 10.6); single-site model
T1 construct: sorting nexin-27 (SNX27), mouse, full length; pMCSG7 vector by ligation-independent cloning; also called mSNX27FL

[2] = target: T2, full-length human SNX27, wild type (human, UniProt Q96L92 1-541); test: ITC; 600 μM hSNX1(75-92) peptide (syringe) titrated into 20 μM hSNX27FL wild type or single-site mutant (cell); 25°C; 50 mM HEPES pH 7.5, 200 mM NaCl, 5% glycerol, 1 mM β-ME; single-site model
T2 construct: sorting nexin-27 (SNX27), human, full length; also called hSNX27FL; hSNX27 WT

[3] = target: T3, full-length mouse SNX1 with an amino-terminal His-tag (mouse, UniProt Q9WV80 1-522); test: ITC; 800 μM hSNX27 FERM titrated into 20 μM GST-mSNX1(1-139) or His-SNX1FL; 25°C; 50 mM HEPES pH 7.5, 200 mM NaCl, 5% glycerol, 1 mM β-ME; single-site model
T3 construct: sorting nexin-1 (SNX1), mouse; vector pMW172Kan; also called mSNX1FL; His-SNX1FL; source: E. coli BL21 CodonPlus (DE3), purified (TALON or Ni-NTA, SEC); not shown: His-tag, N-terminal, kept

[4] = target: B4; test: as above
[5] = target: T4, full-length mouse SNX27 (mouse, UniProt Q3UHD6 1-539); test: ITC; 800 μM SNX1 or SNX2 peptide titrated into 20 μM mSNX27FL; 25°C; 50 mM HEPES pH 7.5, 200 mM NaCl, 5% glycerol, 1 mM β-ME with 1:10 peptide buffer (100 mM Tris-HCl pH 10.6); single-site model
T4 construct: sorting nexin-27 (SNX27), mouse; also called mSNX27FL

[6] = target: T5, full-length human SNX27, wild-type (human, UniProt Q96L92 1-541); test: ITC; 600 μM SNX1 75-92 peptide titrated into 20 μM hSNX27 wild-type or single-site mutant; 25°C; 50 mM HEPES pH 7.5, 200 mM NaCl, 5% glycerol, 1 mM β-ME; single-site model
T5 construct: sorting nexin-27 (SNX27), human; pET-28a, TEV site between His-tag and SNX27; also called hSNX27FL; hSNX27 WT; source: E. coli BL21 (DE3), purified (TALON or Ni-NTA, SEC)

[7] = target: T6, human SNX27 K496D (human, UniProt Q96L92 1-541, K496D); test: as above
T6 construct: human SNX27 single-site mutant; printed as R496D in the text and as K496D in the legend and the methods; also called hSNX27 K496D; SNX27(R496D); source: E. coli BL21 (DE3), purified (TALON or Ni-NTA, SEC)

Which Kd [1] does the source give for B1 here?
Its Kd is 33.4 ± 1.89 µM.

How did the Kd [1] turn out when B2 was run?
Its Kd is 13.4 ± 0.75 µM.

And the Kd [2]?
Its Kd is 12.8 ± 0.47 µM.

For B3, which Kd [1] is on record?
The Kd was 22.6 ± 1.89 µM.

With B4 as the binder, how does the Kd [3] read?
Its Kd is 41 µM.

Which Kd [4] does the source give for B5 here?
The Kd was 39.1 µM.

B6 was tested. Which Kd [5] did it give?
The Kd was 33.4 µM.

Which results are given for B7?
Kd [5]: 13.3 µM; Kd [6]: 12.7 µM; Kd [7]: 56.4 µM

For B8, which Kd [5] is on record?
The Kd was 37.8 µM.

For B9, which Kd [5] is on record?
Its Kd is 22.6 µM.
